Data on 2 molecules can be found in article PMC4807364, “Interaction between Simian Virus 40 Major Capsid Protein VP1 and Cell Surface Ganglioside GM1 Triggers Vacuole Formation” (mBio, 2016).

Data set [1] has as its target C-terminal deletion VP1 mutant (ΔC), truncated after amino acid position 305 (pentamers) (simian virus 40) (UniProt P03087). Put plainly: negative-stain electron microscopy; purified pentamers diluted in PBS pH 7.2 at 20 µg/ml, stained with 1% uranyl acetate, Tecnai T12; step: VP1 chains to pentamer.
Data set [2] deals with the molecule itself. The data set is described as above.

What is called stoichiometry N is a count of units in the complex or per binding partner. For “C-terminal deletion VP1 mutant (ΔC), truncated after amino acid position 305 (pentamers) (from UniProt P03087 1-305) (domain or fragment)”, the stoichiometry N in data set [1] came out at 5.

B1: full-length wild-type SV40 VP1 (pentamers) (natural protein)
chain: MAPTKRKGSCPGAAPKKPKEPVQVPKLVIKGGIEVLGVKTGVDSFTEVECFLNPQMGNPDEHQKGLSKSLAAEKQFTDDSPDKEQLPCYSVARIPLPNINEDLTCGNILMWEAVTVKTEVIGVTAMLNLHSGTQKTHENGAGKPIQGSNFHFFAVGGEPLELQGVLANYRTKYPAQTVTPKNATVDSQQMNTDHKAVLDKDNAYPVECWVPDPSKNENTRYFGTYTGGENVPPVLHITNTATTVLLDEQGVGPLCKADSLYVSAVDICGLFTNTSGTQQWKGLPRYFKITLRKRSVKNPYPISFLLSDLINRRTQRVDGQPMIGMSSQVEEVRVYEDTEELPGDPDMIRYIDEFGQTTTRMQ
notes: major capsid protein VP1 of simian virus 40, full length, wild type, in the pGEX-4T2 plasmid; The virus stocks are strain 776, but no strain is stated for the bacterial construct; The preparations held pentamers and higher-order structures; no intact VLPs were seen; also called major capsid protein VP1; wild-type VP1 pentamers
Regarding B1, in data set [2], the “stoichiometry N” value was determined as 5.
